As a reminder, the Kd is the free concentration of one partner at which half of the binding sites on the other are occupied at equilibrium, for simple one-to-one binding. For orientation: stoichiometry N means the number of molecules, sites or subunits per partner or assembly.

Among the data in paper PMC5655542 are Kd and stoichiometry N values, retold here.

This test has as its target H. polygyrus Alarmin Release Inhibitor (HpARI), recombinant mature 6-His and Myc-tagged protein (Heligmosomoides polygyrus). Briefly: SPR; BIAcore T200; HpARI captured via its 6-His tag on a Ni2+-NTA chip to 400 RU; cytokine injected (mIL-33 6.2-167 nM, hIL-33 0.062-1.67 μM); 25°C; 10 mM NaH2PO4 pH 7.5, 150 mM NaCl, 50 μM EDTA, 0.05% surfactant P20; single kinetic titration, global 1:1 fit.

Chain of H. polygyrus Alarmin Release Inhibitor (HpARI), recombinant mature 6-His and Myc-tagged protein (Heligmosomoides polygyrus) (A0A3P7XL18 63-297): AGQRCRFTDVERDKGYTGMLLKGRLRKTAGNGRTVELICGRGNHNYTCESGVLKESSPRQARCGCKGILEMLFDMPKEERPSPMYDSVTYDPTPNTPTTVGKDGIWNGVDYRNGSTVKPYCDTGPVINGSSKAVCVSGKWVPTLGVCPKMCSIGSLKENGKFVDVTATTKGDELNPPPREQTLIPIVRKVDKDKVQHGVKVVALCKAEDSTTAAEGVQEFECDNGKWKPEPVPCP

B1: recombinant human IL-33, untreated (reduced, active form) (ligand)
chain: MKPKMKYSTNKISTAKWKNTASKALCFKLGKSQQKAKEVCPMYFMKLRSGLMIKKEACYFRRETTKRPSLKTGRKHKRHLVLAACQQQSTVECFAFGISGVQKYTRALHDSSITGISPITEYLASLSTYNDQSITFALEDESYEIYVEDLKKDEKKDKVLLSYYESQHPSNESGDGVDGKMLMVTLSPTKDFWLHANNKEHSVELHKCEKPLPDQAFFVLHNMHSNCVSFECKTDPGVFIGVKDNHLALIKVDSSENLCTENILFKLSET
B1: the Kd turned out to be 260 nM and the stoichiometry N worked out at 1.
